In assay [1] the target is T1, prostate specific membrane antigen (PSMA) on LNCaP cells (human, UniProt Q04609 1-750).
T1 construct: whole, on cells; also called LNCap membrane preparation
Nature of the assay: ELISA on plates coated with LNCap membrane preparation. A general note: An ELISA detects its analyte on a solid surface through an enzyme-linked reagent.

Assay [2] has as its target T1, prostate specific membrane antigen …. Kind of assay: ELISA on plates coated with LNCap membrane preparation; purified antibody; reference J415 chimeric antibody.

T1 sequence (Q04609 whole entry): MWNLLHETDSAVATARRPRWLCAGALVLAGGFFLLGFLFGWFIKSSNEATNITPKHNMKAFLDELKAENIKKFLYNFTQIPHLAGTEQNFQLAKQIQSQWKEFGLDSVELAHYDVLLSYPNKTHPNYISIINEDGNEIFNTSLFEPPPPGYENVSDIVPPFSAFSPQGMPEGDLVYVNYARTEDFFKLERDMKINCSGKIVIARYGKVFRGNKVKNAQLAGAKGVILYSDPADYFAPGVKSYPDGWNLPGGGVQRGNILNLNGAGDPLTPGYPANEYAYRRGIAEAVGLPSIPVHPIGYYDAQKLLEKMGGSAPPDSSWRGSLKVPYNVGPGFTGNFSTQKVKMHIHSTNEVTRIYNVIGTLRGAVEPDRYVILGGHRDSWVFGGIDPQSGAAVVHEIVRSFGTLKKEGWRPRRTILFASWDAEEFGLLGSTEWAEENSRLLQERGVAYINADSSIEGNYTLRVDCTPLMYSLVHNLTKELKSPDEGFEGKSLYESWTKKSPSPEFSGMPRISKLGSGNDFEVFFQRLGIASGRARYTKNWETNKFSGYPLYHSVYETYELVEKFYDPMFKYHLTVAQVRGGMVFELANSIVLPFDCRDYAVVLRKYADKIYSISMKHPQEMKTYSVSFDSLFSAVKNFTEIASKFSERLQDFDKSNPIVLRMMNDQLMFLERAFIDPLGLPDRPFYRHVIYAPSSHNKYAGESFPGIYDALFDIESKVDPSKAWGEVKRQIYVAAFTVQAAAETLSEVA

B1: deimmunized J415 heavy chain version 4 combined with deimmunized J415 light chain version 5 (antibody, V domains shown)
VH: EVKLEESGGGLVQPGGSMKISCVASGFTFSNYWMNWVRQSPEKGLEWVAEIRSQSNNFATHYAESVKGRVIISRDDSKSSVYLQMNSLRAEDTAVYYCTRRWNNFWGQGTTVTVSS
VL: NIVMTQFPKSMSASAGERMTLTCKASENVGTYVSWYQQKPTQSPKMLIYGASNRFTGVPDRFSGSGSGTDFILTISSVQAEDLVDYYCGQSYTFPYTFGGGTKLEMK
notes: also called DIVH4/DIVK5; J415DIVH4/J415DIVK5
For the molecule B1, the binding result in assay [1] was “binds”.

B2: J415 chimeric antibody (antibody, V domains shown)
VH: EVKLEESGGGLVQPGGSMKLSCVASGFTFSNYWMNWVRQSPEKGLEWVAEIRSQSNNFATHYAESVKGRVIISRDDSKSSVYLQMNNLRAEDTGIYYCTRRWNNFWGQGTTLTVSS
VL: NIVMTQFPKSMSISVGERVTLTCKASENVGTYVSWYQQKPEQSPKMLIYGASNRFTGVPDRFTGSGSATDFILTISSVQTEDLVDYYCGQSYTFPYTFGGGTKLEMK
notes: Expression vectors carry human IgG1 and kappa; also called the chimeric
For B2, the binding result in assay [1] was “binds”.

B3: deimmunized J415 heavy chain version 1 combined with DIVK5 (antibody, V domains shown)
VH: EVKLEESGGGLVQPGGSMKISCKASGFTFSNYWMNWVRQTPEKGLEWVALIRSQSNNFATHYAESVKGRVIISRDDSKSSVYLQMNSLRAEDTAVYYCTRRWNNFWGQGTTVTVSS
VL: NIVMTQFPKSMSASAGERMTLTCKASENVGTYVSWYQQKPTQSPKMLIYGASNRFTGVPDRFSGSGSGTDFILTISSVQAEDLVDYYCGQSYTFPYTFGGGTKLEMK
notes: also called J415DIVH1/J415DIVK5
As to B3, in assay [2], the “fold less binding than the chimeric antibody” value was determined as 2 fold.

B4: deimmunized J415 heavy chain version 2 combined with DIVK5 (antibody, V domains shown)
VH: EVKLEESGGGLVQPGGSMKISCVASGFTFSNYWMNWVRQTPEKGLEWVALIRSQSNNFATHYAESVKGRVIISRDDSKSSVYLQMNSLRAEDTAVYYCTRRWNNFWGQGTTVTVSS
VL: NIVMTQFPKSMSASAGERMTLTCKASENVGTYVSWYQQKPTQSPKMLIYGASNRFTGVPDRFSGSGSGTDFILTISSVQAEDLVDYYCGQSYTFPYTFGGGTKLEMK
notes: also called J415DIVH2/J415DIVK5
For B4, the “fold less binding than the chimeric antibody” value in assay [2] amounted to 2 fold.

Values taken from US20040120958A1 (CORNELL RESEARCH FOUNDATION, published 2004).
